Experiments:
Assay in all cases: BLI
[1] = target: CAP256-VRC26.03 Fab (human)
[2] = target: CAP256-VRC26.10 Fab (human)
[3] = target: CAP256-VRC26.01 Fab (human)

**Q.** For “BG505.SOSIP.664 soluble HIV-1 Env trimer (from UniProt Q2N0S6 1-860) (complex)”, which Kd [1] is on record?
**A.** Its Kd is 64 nM.

**Q.** What about the koff [1] of the same substance?
**A.** The koff was 0.0041 s⁻¹.

**Q.** And the kon [1]?
**A.** Its kon is 63000 M⁻¹ s⁻¹.

**Q.** What about the Kd [2] of the same substance?
**A.** The Kd was 84 nM.

**Q.** What about the koff [2] of the same substance?
**A.** The koff was 0.0045 s⁻¹.

**Q.** What about the kon [2] of the same substance?
**A.** Its kon is 54000 M⁻¹ s⁻¹.

**Q.** And the Kd [3]?
**A.** The Kd was 680 nM.

**Q.** What about the koff [3] of the same substance?
**A.** The koff was 0.0071 s⁻¹.

From publication PMC5250619
